From US20260216326A1 (PROMETHEUS BIOSCIENCES, published 2026)

T1: human TL1A (Fitzgerald #30R-AT070) (human, UniProt O95150 72-251, limits assumed)
T1 construct: Coated on the ELISA plate at 1 ug/mL; also called TNFSF15
T1 sequence (looked up): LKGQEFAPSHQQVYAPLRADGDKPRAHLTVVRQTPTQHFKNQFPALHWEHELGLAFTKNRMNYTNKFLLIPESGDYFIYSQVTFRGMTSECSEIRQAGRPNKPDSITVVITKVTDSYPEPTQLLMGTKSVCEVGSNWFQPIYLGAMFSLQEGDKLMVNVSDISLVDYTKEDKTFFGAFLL

B1: A148 (antibody, human IgG1, V domains shown)
VH: QVQLVQSGAEVKKPGASVKVSCKASGFDIQDTYMHWVRQAPGQGLEWMGRIEPASGHIKYDPKFQVRVTMTRDTSTSTVYMELSSLRSEDTAVYYCARSGGLPDWWGQGTTVTVSS
VL: EIVLTQSPGTLSLSPGERATLSCRASSSVSYMYWYQQKPGQAPRPLIYATSNLASGIPDRFSGSGSGTDFTLTISRLEPEDFAVYYCQQWEGNPRTFGGGTKLEIK
notes: human IgG1/kappa (pFuse vectors), culture supernatant
B2: A58 (antibody, human IgG1, V domains shown)
VH: QVQLVQSGAEVKKPGASVKVSCKASGFDIQDTYMHWVKQAPGQGLEWMGRIEPASGHIKYDPKFQGRVTMTRDTSTSTVYMELSSLRSEDTAVYYCARSGGLPDWWGQGTTVTVSS
VL: EIVLTQSPGTLSLSPGERATLSCRASSSVSYMYWYQQKPGQAPRLLIYATSNLASGIPDRFSGSGSGTDFTLTISRLEPEDFAVYYCQQWEGNPRTFGGGTKLEIK
notes: as for B1
B3: A61 (antibody, human IgG1, V domains shown)
VH: QVQLVQSGAEVKKPGASVKVSCKASGFDIQDTYMHWVRQAPGQGLEWIGRIEPASGHIKYDPKFQGRVTMTRDTSTSTVYMELSSLRSEDTAVYYCARSGGLPDWWGQGTTVTVSS
VL: EIVLTQSPGTLSLSPGERATLSCRASSSVSYMYWYQQKPGQAPRLLIYATSNLASGIPDRFSGSGSGTDFTLTISRLEPEDFAVYYCQQWEGNPRTFGGGTKLEIK
notes: as for B1
B4: A70 (antibody, human IgG1, V domains shown)
VH: QVQLVQSGAEVKKPGASVKVSCKASGFDIQDTYMHWVRQAPGQGLEWMGRIEPASGHIKYDPKFQGRVTMTTDTSTSTVYMELSSLRSEDTAVYYCARSGGLPDWWGQGTTVTVSS
VL: EIVLTQSPGTLSLSPGERATLSCRASSSVSYMYWYQQKPGQAPRLLIYATSNLASGIPDRFSGSGSGTDFTLTISRLEPEDFAVYYCQQWEGNPRTFGGGTKLEIK
notes: as for B1
B5: A73 (antibody, human IgG1, V domains shown)
VH: QVQLVQSGAEVKKPGASVKVSCKASGFDIQDTYMHWVRQAPGQGLEWMGRIEPASGHIKYDPKFQGRVTMTTDTSTSTVYMELSSLRSEDTAVYYCARSGGLPDWWGQGTTVTVSS
VL: EIVLTQSPGTLSLSPGERATLSCRASSSVSYMYWYQQKPGQAPRPWIYATSNLASGIPDRFSGSGSGTDFTLTISRLEPEDFAVYYCQQWEGNPRTFGGGTKLEIK
notes: as for B1
B6: A68 (antibody, human IgG1, V domains shown)
VH: QVQLVQSGAEVKKPGASVKVSCKASGFDIQDTYMHWVRQAPGQGLEWMGRIEPASGHIKYDPKFQVRVTITRDTSTSTVYMELSSLRSEDTAVYYCARSGGLPDWWGQGTTVTVSS
VL: EIVLTQSPGTLSLSPGERATLSCRASSSVSYMYWYQQKPGQAPRLLIYATSNLASGIPDRFSGSGSGTDFTLTISRLEPEDFAVYYCQQWEGNPRTFGGGTKLEIK
notes: as for B1
B7: A60 (antibody, human IgG1, V domains shown)
VH: QVQLVQSGAEVKKPGASVKVSCKASGFDIQDTYMHWVRQAPGQGLEWMGRIDPASGHIKYDPKFQGRVTMTRDTSTSTVYMELSSLRSEDTAVYYCARSGGLPDWWGQGTTVTVSS
VL: EIVLTQSPGTLSLSPGERATLSCRASSSVSYMYWYQQKPGQAPRLLIYATSNLASGIPDRFSGSGSGTDFTLTISRLEPEDFAVYYCQQWEGNPRTFGGGTKLEIK
notes: as for B1
B8: A62 (antibody, human IgG1, V domains shown)
VH: QVQLVQSGAEVKKPGASVKVSCKASGFDIQDTYMHWVRQAPGQGLEWIGRIDPASGHIKYDPKFQGRVTMTRDTSTSTVYMELSSLRSEDTAVYYCARSGGLPDWWGQGTTVTVSS
VL: EIVLTQSPGTLSLSPGERATLSCRASSSVSYMYWYQQKPGQAPRLLIYATSNLASGIPDRFSGSGSGTDFTLTISRLEPEDFAVYYCQQWEGNPRTFGGGTKLEIK
notes: as for B1
B9: A33 (antibody, V domains shown)
VH: DVQLVQSGAEVKKPGASVKVSCKASGFDIQDTYMHWVRQAPGQGLEWMGRIEPASGHIKYDPKFQGRVTMTRDTSTSTVYMELSSLRSEDTAVYYCARSGGLPDWWGQGTTVTVSS
VL: EIVLTQSPGTLSLSPGERATLSCRASSSVSYMYWYQQKPGQAPRLLIYATSNLASGIPDRFSGSGSGTDFTLTISRLEPEDFAVYYCQQWEGNPRTFGGGTKLEIK
B10: A31 (antibody, human IgG1, V domains shown)
VH: QVQLVQSGAEVKKPGASVKVSCKASGFDIQDTYMHWVRQAPGQGLEWMGRIEPASGHIKYDPKFQGRVTMTRDTSTSTVYMELSSLRSEDTAVYYCARSGGLPDWWGQGTTVTVSS
VL: EIVLTQSPGTLSLSPGERATLSCRASSSVSYMYWYQQKPGQAPRPWIYATSNLASGIPDRFSGSGSGTDFTLTISRLEPEDFAVYYCQQWEGNPRTFGGGTKLEIK
notes: as for B1
B11: A57 (antibody, human IgG1, V domains shown)
VH: QVQLVQSGAEVKKPGASVKVSCKASGFDIQDTYMHWVRQRPGQGLEWMGRIEPASGHIKYDPKFQGRVTMTRDTSTSTVYMELSSLRSEDTAVYYCARSGGLPDWWGQGTTVTVSS
VL: EIVLTQSPGTLSLSPGERATLSCRASSSVSYMYWYQQKPGQAPRLLIYATSNLASGIPDRFSGSGSGTDFTLTISRLEPEDFAVYYCQQWEGNPRTFGGGTKLEIK
notes: as for B1
B12: A65 (antibody, human IgG1, V domains shown)
VH: QVQLVQSGAEVKKPGASVKVSCKASGFDIQDTYMHWVRQAPGQGLEWMGRIEPASGHIKYDPKFQGRATMTRDTSTSTVYMELSSLRSEDTAVYYCARSGGLPDWWGQGTTVTVSS
VL: EIVLTQSPGTLSLSPGERATLSCRASSSVSYMYWYQQKPGQAPRLLIYATSNLASGIPDRFSGSGSGTDFTLTISRLEPEDFAVYYCQQWEGNPRTFGGGTKLEIK
notes: as for B1
B13: A64 (antibody, human IgG1, V domains shown)
VH: QVQLVQSGAEVKKPGASVKVSCKASGFDIQDTYMHWVRQAPGQGLEWMGRIEPASGHIKYDPKFQVRVTMTRDTSTSTVYMELSSLRSEDTAVYYCARSGGLPDWWGQGTTVTVSS
VL: EIVLTQSPGTLSLSPGERATLSCRASSSVSYMYWYQQKPGQAPRLLIYATSNLASGIPDRFSGSGSGTDFTLTISRLEPEDFAVYYCQQWEGNPRTFGGGTKLEIK
notes: as for B1
B14: A67 (antibody, human IgG1, V domains shown)
VH: QVQLVQSGAEVKKPGASVKVSCKASGFDIQDTYMHWVRQAPGQGLEWMGRIEPASGHIKYDPKFQVRATMTRDTSTSTVYMELSSLRSEDTAVYYCARSGGLPDWWGQGTTVTVSS
VL: EIVLTQSPGTLSLSPGERATLSCRASSSVSYMYWYQQKPGQAPRLLIYATSNLASGIPDRFSGSGSGTDFTLTISRLEPEDFAVYYCQQWEGNPRTFGGGTKLEIK
notes: as for B1
B15: A63 (antibody, human IgG1, V domains shown)
VH: QVQLVQSGAEVKKPGASVKVSCKASGFDIQDTYMHWVRQAPGQGLEWMGRIEPASGHVKYDPKFQGRVTMTRDTSTSTVYMELSSLRSEDTAVYYCARSGGLPDWWGQGTTVTVSS
VL: EIVLTQSPGTLSLSPGERATLSCRASSSVSYMYWYQQKPGQAPRLLIYATSNLASGIPDRFSGSGSGTDFTLTISRLEPEDFAVYYCQQWEGNPRTFGGGTKLEIK
notes: as for B1
B16: A72 (antibody, human IgG1, V domains shown)
VH: QVQLVQSGAEVKKPGASVKVSCKASGFDIQDTYMHWVRQAPGQGLEWMGRIEPASGHIKYDPKFQGRATITTDTSTSTVYMELSSLRSEDTAVYYCARSGGLPDWWGQGTTVTVSS
VL: EIVLTQSPGTLSLSPGERATLSCRASSSVSYMYWYQQKPGQAPRLLIYATSNLASGIPDRFSGSGSGTDFTLTISRLEPEDFAVYYCQQWEGNPRTFGGGTKLEIK
notes: as for B1
B17: A66 (antibody, human IgG1, V domains shown)
VH: QVQLVQSGAEVKKPGASVKVSCKASGFDIQDTYMHWVRQAPGQGLEWMGRIEPASGHIKYDPKFQGRVTITRDTSTSTVYMELSSLRSEDTAVYYCARSGGLPDWWGQGTTVTVSS
VL: EIVLTQSPGTLSLSPGERATLSCRASSSVSYMYWYQQKPGQAPRLLIYATSNLASGIPDRFSGSGSGTDFTLTISRLEPEDFAVYYCQQWEGNPRTFGGGTKLEIK
notes: as for B1
B18: A59 (antibody, human IgG1, V domains shown)
VH: QVQLVQSGAEVKKPGASVKVSCKASGFDIQDTYMHWVKQRPGQGLEWMGRIEPASGHIKYDPKFQGRVTMTRDTSTSTVYMELSSLRSEDTAVYYCARSGGLPDWWGQGTTVTVSS
VL: EIVLTQSPGTLSLSPGERATLSCRASSSVSYMYWYQQKPGQAPRLLIYATSNLASGIPDRFSGSGSGTDFTLTISRLEPEDFAVYYCQQWEGNPRTFGGGTKLEIK
notes: as for B1
B19: A71 (antibody, human IgG1, V domains shown)
VH: QVQLVQSGAEVKKPGASVKVSCKASGFDIQDTYMHWVRQAPGQGLEWMGRIEPASGHIKYDPKFQGRVTITTDTSTSTVYMELSSLRSEDTAVYYCARSGGLPDWWGQGTTVTVSS
VL: EIVLTQSPGTLSLSPGERATLSCRASSSVSYMYWYQQKPGQAPRLLIYATSNLASGIPDRFSGSGSGTDFTLTISRLEPEDFAVYYCQQWEGNPRTFGGGTKLEIK
notes: as for B1
B20: A69 (antibody, human IgG1, V domains shown)
VH: EVQLVQSGAEVKKPGASVKVSCKASGFDIQDTYMHWVRQAPGQGLEWMGRIEPASGHIKYDPKFQGRVTMTRDTSTSTVYMELSSLRSEDTAVYYCARSGGLPDWWGQGTTVTVSS
VL: EIVLTQSPGTLSLSPGERATLSCRASSSVSYMYWYQQKPGQAPRLLIYATSNLASGIPDRFSGSGSGTDFTLTISRLEPEDFAVYYCQQWEGNPRTFGGGTKLEIK
notes: as for B1
B21: A29 (antibody, human IgG1, V domains shown)
VH: QVQLVQSGAEVKKPGASVKVSCKASGFDIQDTYMHWVKQRPGQGLEWIGRIDPASGHTKYDPKFQVRATITTDTSTSTAYLELSSLRSEDTAVYYCARSGGLPDVWGQGTTVTVSS
VL: EIVLTQSPGTLSLSPGERATLSCRASSSVSYMYWYQQKPGQAPRPWIYATSNLASGIPDRFSGSGSGTDFTLTISRLEPEDFAVYYCQQWEGNPRTFGGGTKLEIK
notes: as for B1
B22: A32 (antibody, V domains shown)
VH: DVQLVQSGAEVKKPGASVKVSCKASGFDIQDTYMHWVRQAPGQGLEWMGRIEPASGHIKYDPKFQGRVTMTRDTSTSTVYMELSSLRSEDTAVYYCARSGGLPDWWGQGTTVTVSS
VL: EIVLTQSPGTLSLSPGERATLSCRASSSVSYMYWYQQKPGQAPRPWIYATSNLASGIPDRFSGSGSGTDFTLTISRLEPEDFAVYYCQQWEGNPRTFGGGTKLEIK

What follows are binders tested against T1, human TL1A (Fitzgerald #30R-AT070) (assay: ELISA titration, coated human TL1A, culture supernatant).

In order of falling Kd:
1. B11  0.191 nM
2. B7  0.168 nM
3. B16  0.159 nM
4. B8  0.15 nM
5. B17  0.15 nM
6. B19  0.15 nM
7. B4  0.149 nM
8. B18  0.136 nM
9. B20  0.136 nM
10. B15  0.132 nM
11. B5  0.128 nM
12. B3  0.127 nM
13. B2  0.112 nM
14. B22  0.111 nM
15. B12  0.097 nM
16. B10  0.092 nM
17. B13  0.09 nM
18. B14  0.089 nM
19. B9  0.081 nM
20. B6  0.074 nM
21. B21  0.065 nM
22. B1  0.046 nM
